The text below walks through data of patent publication US20260139013A1 (VIB VZW, published 2026).

The data set concerns the molecule itself. In words: cryo-EM structure of the self-assembled fiber (subunit to subunit).

B1: Ena1B-HI-Rubredoxin (other)
chain: MGNCSTNLSCCANGQKTIVQDKVCIDWTAAATAAIIYADNISQDIYASGYLKVDTGTGPVTIVFYSGGVTGTAVETIVVATGSSASFTVRRFDTVTILGGGKYVCTVCGYEYDPAEGDPDNGVKPGTSFDDLPADWVCPVCGAPKSEFEAAGAAETGEFCMTIRYTLS
notes: It was made in E. coli and studied as a self-assembled helical fiber of many identical subunits; The rubredoxin centre carried mostly zinc and some iron; also called Ena-HI-Rubredoxin; Ena1B-Rubredoxin-HI
B1: the binding result is on record as “binds”.
